Results: article PMC5148741

Experiments:
Experiment in all cases: fluorescence polarisation
TbtF = target: TbtF
MBP-TbtD = target: MBP-TbtD
[1] = target: RRE of TbtF (residues 1–85)

| IC50 (TbtF) [µM] | IC50 (MBP-TbtD) [µM] | Kd [1] [µM] | Substance |
| --- | --- | --- | --- |
| 2.75 | 1.09 | – | TbtA M(−27)A (peptide) |
| 0.85 | 2.66 | – | TbtA P(−28)A (peptide) |
| – | – | 0.1 | synthetic TbtA leader peptide derivatized with fluorescein isothiocyanate (FITC) at the N-terminus |
